Read-outs that look alike come from different tables or passages of the source.
Legend:
Assay in all cases: cryo-EM structure
[1] = target: epsilon15 bacteriophage capsid stapling protein gp10 (epsilon15 bacteriophage)
[2] = target: epsilon15 bacteriophage capsid stapling protein gp10 (epsilon15 bacteriophage); remark: listed apart in the source
[3] = target: epsilon15 bacteriophage tail hub (epsilon15 bacteriophage)
[4] = target: epsilon15 bacteriophage tail-spike (gp20) (epsilon15 bacteriophage)

epsilon15 bacteriophage capsid stapling protein gp10 (natural protein)
stoichiometry N [1]: 2 | stoichiometry N [2]: 2

epsilon15 bacteriophage tail hub (natural protein)
stoichiometry N [3]: 6

epsilon15 bacteriophage tail-spike (gp20) (natural protein)
stoichiometry N [4]: 3

From PMC2925294
